This note sets out measurements from patent publication US20240368617A1, “NPR1 VARIANT TO ENHANCE PLANT RESISTANCE TO BIOTIC AND ABIOTIC STRESSES AND METHOD THEREOF” (Duke University, published 2024).

Data set [1] deals with the molecule itself. Description: X-ray crystal structure, 1.5 A; self-association. On the procedure: The Arabidopsis TGA3 NID (Ala160-Thr384) was cloned into the pTrcHis vector (Thermo Fisher Scientific) as a His10-MBP fusion protein containing a PreScission protease site following MBP and a C-terminal tandem Flag-HA tag. The purification procedure was per-formed similarly to that of Arabidopsis TGA3 (Asn87-Thr384) except that the size-exclusion chromatography buffer contained 20 mM HEPES (pH 7.5), 150 mM NaCl and 1 mM TCEP. Protein crystals were grown using the sitting-drop vapor diffusion method at 20° C. Each drop contained 1 μl of the protein solution mixed with 1 μl of the reservoir solution (0.1 m sodium acetate at pH 5.0, 20% (v/v) MPD). Diffraction quality protein crystals were collected after 1 week and cryoprotected with the reservoir solution also containing 25% glycerol.

Data set [2] concerns the molecule itself. Description: X-ray crystal structure of NPR1(deltaSBD); tetramer in the crystal. Here is the method:
5. X-ray crystallography studies of NPR1 (ΔSBD)) and the TGA3 NID. Arabidopsis NPR1 (²SBD) (Thr39-Asp410) was cloned into the pTrcHis vector (Thermo Fisher Scientific) as a His10-MBP fusion protein containing a PreScission protease site following MBP and a C-terminal Strep tag. Expression and purification of NPR1 (²SBD) was performed using similar procedures to those described above for E. coli-expressed NPR1, except that the size-exclusion chromatography buffer contained 20 mM HEPES (pH 7.5), 150 mM NaCl and 1 mM TCEP. Protein crystals were grown using the sitting-drop vapor diffusion method at 20° C. Each drop was prepared by mixing 1 μl of the protein solution at 6 mg ml-1 with 1 μl of the reservoir solution containing 0.1 M HEPES (pH 7.5), 19% PEG 3350, 0.25 m tri-sodium citrate. Diffraction-quality protein crystals were collected after 1 week and cryoprotected with the reservoir solution containing 25% glycerol.

A further data set addresses T1, TGA3 (Asn87-Thr384) (Arabidopsis thaliana, UniProt Q39234 Q39234:87-384).
T1 sequence: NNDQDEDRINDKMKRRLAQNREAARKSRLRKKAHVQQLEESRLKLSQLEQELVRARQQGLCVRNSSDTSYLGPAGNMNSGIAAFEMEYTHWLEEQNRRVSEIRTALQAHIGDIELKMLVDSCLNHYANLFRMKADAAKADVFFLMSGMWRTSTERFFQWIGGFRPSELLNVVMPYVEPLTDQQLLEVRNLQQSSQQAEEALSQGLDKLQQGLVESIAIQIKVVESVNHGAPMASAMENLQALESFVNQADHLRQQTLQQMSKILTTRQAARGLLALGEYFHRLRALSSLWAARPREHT
In words: EMSA. To be noted: tags: His10-MBP (PreScission site) N-terminal, C-terminal tandem Flag-HA; AT1G22070; E. coli; label: 6-FAM. On the procedure:
The npr1(dim) mutant (L49D/F53D/V56D/V83K) was cloned into the pTrcHis vector (Thermo Fisher Scientific) as a His10-MBP fusion protein containing a PreScission protease site following MBP and a C-terminal Strep tag, and was expressed and purified similarly to the WT NPR 1 protein. Purified TGA3 (Asn87-Thr384) at a concentration of 0.6 μM and WT NPR1 or the npr1(dim) mutant at a concentration of 8 μM were used in the EMSA with the 6-fluorescein (6-FAM)-labelled oligonucleotide probes (200 nM) containing the LS5 and LS7 as-I cis-elements of the SA-responsive PRI gene promoter (LS5/LS7, 6-FAM-C-ggg[…]ggg) or DNA sequences with the two as-1 regions replaced with adenosines (LS5/LS7, 6-FAM-C-ggg[…]ggg), with the LS7 as-1 element replaced with adenosines (LS5/LS7, 6-FAM-C-ggg[…]-GAggg) or with the LS5 as-1 element replaced with adenosines (LS5/LS7, 6-FAM-C-ggg[…]ggg) as well as their complementary oligonucleotides (Integrated DNA Technologies). The uppercase bases indicate the LS5/LS7 sequence; the lowercase bases indicate overhangs outside the LS5/LS7 sequence; and bases replaced with adenosines are indicated with A's in the small capital font. Pairs of complementary DNA strands were annealed before the binding reaction. For each binding reaction, the desired protein combination was mixed with the target DNA probe together with 30 ng/μL of poly (dI-dC) (non-specific competitor, Thermo Fisher Scientific) in a binding buffer containing 20 mM HEPES (pH 8.0), 300 mM NaCl, 10% glycerol, 1 mM DTT and 0.2 mM SA. […] After electrophoresis, the gel was scanned with the Typhoon FLA 7000 imager (GE Healthcare).
A general note: A gel shift assay detects complexes by their altered migration in electrophoresis.

Data set [3] concerns the molecule itself. Description: hydrogen peroxide-induced oligomerization, non-reducing SDS-PAGE. Here is the method: WT NPR1 BTB/BHB (Thr39-Lys262) and the npr1(C156A), npr1 (C82A) and npr1(C212V/C216A/C223L) mutants were cloned into the pTrcHis vector (Thermo Fisher Scientific) as His10-MBP fusion proteins with a PreScission protease site following MBP and a C-terminal Strep tag. The proteins were expressed and purified similarly to the NPR1 (²SBD) as described above. The NPR1 BTB/BHB WT and mutant proteins at a concentration of 25 μM were incubated with 1 mM hydrogen peroxide in a buffer containing 125 mM HEPES and 150 mM NaCl at pH 8.0 at room temperature for 45 min. The oxidized samples were incubated with 50 mM iodoacetamide for 5 min, mixed with 4× SDS loading dye and analyzed using SDS-PAGE in the absence of any reducing reagent.

Data set [4] deals with the molecule itself. Description: cryo-EM of the NPR1-TGA3 complex; self-association.
In data set [5] the target is T2, Full-length Arabidopsis NPR1 with C-terminal Strep tag, expressed in E. coli (NPR1-Strep3) (Arabidopsis thaliana, UniProt P93002 1-593).
T2 construct: Full-length NPR1; Homodimer; Purified with 0.2 mM salicylic acid; also called WT NPR1; not shown: C-terminal Strep tag (Strep3) with its last Lys mutated to Arg
T2 sequence: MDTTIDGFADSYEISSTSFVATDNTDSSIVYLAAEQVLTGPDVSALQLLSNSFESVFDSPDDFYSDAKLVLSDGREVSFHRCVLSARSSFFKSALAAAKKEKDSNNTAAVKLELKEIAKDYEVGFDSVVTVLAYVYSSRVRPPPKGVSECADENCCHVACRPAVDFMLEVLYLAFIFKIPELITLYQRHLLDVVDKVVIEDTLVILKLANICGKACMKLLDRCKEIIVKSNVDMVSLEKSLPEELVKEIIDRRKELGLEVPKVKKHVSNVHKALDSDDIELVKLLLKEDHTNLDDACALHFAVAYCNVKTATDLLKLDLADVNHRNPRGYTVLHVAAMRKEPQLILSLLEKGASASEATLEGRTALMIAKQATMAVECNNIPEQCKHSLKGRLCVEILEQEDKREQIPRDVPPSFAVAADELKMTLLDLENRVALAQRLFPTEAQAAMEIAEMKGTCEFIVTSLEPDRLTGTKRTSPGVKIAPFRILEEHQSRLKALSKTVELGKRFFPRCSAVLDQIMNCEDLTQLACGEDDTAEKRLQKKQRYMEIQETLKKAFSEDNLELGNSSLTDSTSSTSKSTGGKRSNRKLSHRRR
Description: cryo-EM of BS3 cross-linked NPR1-TGA3-LS7 DNA complex. Here is the method:
2. NPR1 TGA3 LS7-DNA cryo-EM sample preparation. The purified NPR1-Strep3 (20 μM), TGA3-Flag-HA (48 μM) and the LS7 DNA containing a palindromic TGA-binding site (underlined in 5′-[…]-3′, 57.6 μM) were mixed and incubated at 4° C. for 30 min. The protein-DNA complex was cross-linked with 1.5 mM BS3 (Thermo Fisher Scientific) at room temperature for 30 min and quenched with 50 mM Tris (pH 8.0). The protein-DNA mixture was further purified using a Strep-Tactin column (Qiagen) and size-exclusion chromatography (Superose 6 in-crease 10/300 GL, Cytiva) in a buffer containing 25 mM HEPES (pH 7.5), 150 mM NaCl, 2 mM DTT and 0.2 mM SA.
3. Cryo-EM sample preparation and data collection. Cryo-EM grids containing the NPR1-TGA3-LS7-DNA complex were prepared using the Leica EM GP2 Automatic Plunge Freezer at 4° C. and 85% humidity. The UltrAuFoil R1.2/1.3 300-mesh grids (Quantifoil) were glow-discharged using the PELCO easiGlow Glow Discharge Cleaning System (Ted Pella). A 3 μl sample of NPR1-TGA3-LS7-DNA (˜1.3 mg/ml) was applied to the grid, incubated for 60 s in the chamber and blotted for 2.4 s with Whatman No. 1 filter paper (Whatman International) to re-move excess sample, and then plunge-frozen into liquid ethane cooled by liquid nitrogen. […]

B1: Arabidopsis TGA3 NID (Ala160-Thr384) with C-terminal tandem Flag-HA tag (other, Arabidopsis thaliana, UniProt Q39234 160-384, looked up)
chain: AGNMNSGIAAFEMEYTHWLEEQNRRVSEIRTALQAHIGDIELKMLVDSCLNHYANLFRMKADAAKADVFFLMSGMWRTSTERFFQWIGGFRPSELLNVVMPYVEPLTDQQLLEVRNLQQSSQQAEEALSQGLDKLQQGLVESIAIQIKVVESVNHGAPMASAMENLQALESFVNQADHLRQQTLQQMSKILTTRQAARGLLALGEYFHRLRALSSLWAARPREHT
notes: range 160-384; Crystallised as a dimer with palmitate (PDB 7TAE); not shown: C-terminal tandem Flag-HA tag
As for B1, the binding result in data set [1] is “binds”.

B2: Arabidopsis NPR1(deltaSBD) (Thr39-Asp410) with C-terminal Strep tag (other)
chain: TGPDVSALQLLSNSFESVFDSPDDFYSDAKLVLSDGREVSFHRCVLSARSSFFKSALAAAKKEKDSNNTAAVKLELKEIAKDYEVGFDSVVTVLAYVYSSRVRPPPKGVSECADENCCHVACRPAVDFMLEVLYLAFIFKIPELITLYQRHLLDVVDKVVIEDTLVILKLANICGKACMKLLDRCKEIIVKSNVDMVSLEKSLPEELVKEIIDRRKELGLEVPKVKKHVSNVHKALDSDDIELVKLLLKEDHTNLDDACALHFAVAYCNVKTATDLLKLDLADVNHRNPRGYTVLHVAAMRKEPQLILSLLEKGASASEATLEGRTALMIAKQATMAVECNNIPEQCKHSLKGRLCVEILEQEDKREQIPRD
notes: E. coli expressed, His10-MBP removed; Crystal structure PDB 7MK3; two dimers stack to a tetramer in the crystal; also called NPR1 (ASBD); NPR1 (^2SBD); not shown: C-terminal Strep tag
On to B2, for which the binding result in data set [2] was “binds”.

B3: PR1 promoter LS5-/LS7- (both as-1 replaced) (dsDNA)
DNA 1: GGGCTAAAAAAAAAGTAAAATAGAAAAAAAAAGAGGG
DNA 2: CCCTCTTTTTTTTTCTATTTTACTTTTTTTTTAGCCC
With B3, the binding result with TGA3 (Asn87-Thr384) is reported as “no binding”.

B4: WT NPR1 BTB/BHB (Thr39-Lys262) with C-terminal Strep tag (other)
chain: TGPDVSALQLLSNSFESVFDSPDDFYSDAKLVLSDGREVSFHRCVLSARSSFFKSALAAAKKEKDSNNTAAVKLELKEIAKDYEVGFDSVVTVLAYVYSSRVRPPPKGVSECADENCCHVACRPAVDFMLEVLYLAFIFKIPELITLYQRHLLDVVDKVVIEDTLVILKLANICGKACMKLLDRCKEIIVKSNVDMVSLEKSLPEELVKEIIDRRKELGLEVPK
notes: E. coli expressed, His10-MBP fusion with PreScission site, purified as NPR1(deltaSBD); Used in hydrogen peroxide oxidation assay; also called NPR1 BTB-BHB domain; NPR1 (residues Thr39-Lys262); not shown: C-terminal Strep tag
B4: the binding result in data set [3] is recorded as “binds”.

B5: Arabidopsis TGA3 (Asn87-Thr384) with C-terminal tandem Flag-HA tag (other, Arabidopsis thaliana, UniProt Q39234 87-384, looked up)
chain: T1 sequence
notes: range 87-384; E. coli expressed; His10-MBP removed with PreScission protease; two dimers per NPR1 dimer in the full complex; also called TGA3-Flag-HA; not shown: C-terminal tandem Flag-HA tag
As to B5, the binding result in data set [4] and in data set [5] was “binds” each time.
